# B1: A8 monomer (VHH)
# VHH: QVQLVESGGGLVQAGGSLRLSCAASGGTFSTAAMGWFRQAPGEERECVASIGWRGVRTWYADSVKGRFTISRDNPQNTVYLQMNNLKSGDTAVYYCAASVGNYGLPWAHFEYDFWGQGIQVTVSS
# B2: H6 monomer (VHH)
# VHH: QVQLVESGGGLVQPGGSLTLSCVASESSLAPYRVAWFRQAPGKEREGVSCISRDAHPTSTYYTASVKGRFTMSRDNAKNTVYLQMNSLKPSDTAVYYCATDLGGYCSDSNYPRAWWGQGTQVTVSS
# B3: B5-5 monomer (VHH)
# VHH: QVQLVESGGGLVQPGGSLRLSCAVFGSTLDNYSVGWFRQLPGKEREGLACFSRRYGAPYYADSAKDRFTISRDNAKNTVDLQLNGLKPEDTAVYYCATRSGPYCTTSVSDFDDWGRGTQVTVSS
# Target: T1, SARS-CoV-2 Omicron BA.1 RBD, biotin-tagged (SARS-CoV-2 Omicron BA.1, S371L | S375F | K/V417N | S477N | E484A | N501Y | Y505H, biotin)
# T1 construct: source: Expi293, purified
# Assay: BLI
# Conditions: both partners purified
Binder,Kd [pM],koff [s⁻¹],kon [M⁻¹ s⁻¹]
B1,15700,0.0053,343000
B2,22700,0.00553,245000
B3,355,0.000204,576000

# Target: T2, SARS-CoV-2 Omicron BA.4/5 RBD, biotin-tagged (SARS-CoV-2 Omicron BA.4/5, S371F | S375F | D405N | R408S | L452R | E484A | F486V | N501Y, biotin)
# T2 construct: source: Expi293, purified
# Assay: BLI
# Conditions: both partners purified
Binder,Kd [pM],koff [s⁻¹],kon [M⁻¹ s⁻¹]
B1,8100,0.00283,349000
B2,7080,0.00235,333000
B3,684,0.000129,190000

# Target: T3, SARS-CoV-2 Beta RBD, biotin-tagged (SARS-CoV-2 Beta (B.1.351), E484K | N501Y, biotin)
# T3 construct: source: Expi293, purified
# Assay: BLI
# Conditions: both partners purified
Binder,Kd [pM],koff [s⁻¹],kon [M⁻¹ s⁻¹]
B1,889,0.000289,326000
B2,677,0.000337,498000
B3,65.5,1.29e-05,216000

# Reference: PMC11285730 (Open Biology, 2024)
